Measured values as given in paper doi:10.1101/2025.11.26.690650 (bioRxiv, 2025).

B1: Turnip crinkle virus P38 protein (TCV P38), wildtype (natural protein, UniProt P06663 1-351, looked up)
chain: MENDPRVRKFASDGAQWAIKWQKKGWSTLTSRQKQTARAAMGIKLSPVAQPVQKVTRLSAPVALAYREVSTQPRVSTARDGITRSGSELITTLKKNTDTEPKYTTAVLNPSEPGTFNQLIKEAAQYEKYRFTSLRFRYSPMSPSTTGGKVALAFDRDAAKPPPNDLASLYNIEGCVSSVPWTGFILTVPTDSTDRFVADGISDPKLVDFGKLIMATYGQGANDAAQLGEVRVEYTVQLKNRTGSTSDAQIGDFAGVKDGPRLVSWSKTKGTAGWEHDCHFLGTGNFSLTLFYEKAPVSGLENADASDFSVLGEAAAGSVQWAGVKVAERGQGVKMVTTEEQPKGKWQALRI
B2: siR gf698_21 (dsRNA)
RNA 1: UAGUUCAUCCAUGCCAUGUGU
RNA 2: ACAUGGCAUGGAUGAACUAUA
modifications: 5'-phosphate
B3: siR gf698_22 (dsRNA)
RNA 1: UAGUUCAUCCAUGCCAUGUGUA
RNA 2: CACAUGGCAUGGAUGAACUAUA
modifications: 5'-phosphate
B4: siR gf698_24 (dsRNA)
RNA 1: UAGUUCAUCCAUGCCAUGUGUAAU
RNA 2: UACACAUGGCAUGGAUGAACUAUA
modifications: 5'-phosphate
B5: AtmiR162 (dsRNA)
RNA 1: UCGAUAAACCUCUGCAUCCAG
RNA 2: GGAGGCAGCGGUUCAUCGAUC
modifications: 5'-phosphate
B6: AtmiR168 (dsRNA)
RNA 1: UCGCUUGGUGCAGGUCGGGAA
RNA 2: CCCGCCUUGCAUCAACUGAAU
modifications: 5'-phosphate
B7: AtmiR403a (dsRNA)
RNA 1: UUAGAUUCACGCACAAACUCG
RNA 2: UGUUUUGUGCUUGAAUCUAAUU
modifications: 5'-phosphate
B8: NbmiR403a (dsRNA)
RNA 1: UUAGAUUCACGCACAAACUCG
RNA 2: UGUUUGUGCGUGAAUCUGACA
modifications: 5'-phosphate
B9: NbmiR403b (dsRNA)
RNA 1: UUAGAUUCACGCACAAACUCG
RNA 2: UGUUUGUGCGUGAUUCUGACA
modifications: 5'-phosphate
B10: dsRNA_33 (dsRNA)
RNA 1: CUAAGAUGCUCGCUGCCAAUGAACGACCCUCCCUAA
RNA 2: UUAGGGAGGGUCGUUCAUUGGCAGCGAGCAUCU
modifications: 5'-phosphate

Biological target: the molecule itself
Assay: AUC

| Molecule | stoichiometry N |
| --- | --- |
| B1 | 2 |

What follows are molecules tested against T1, TCV P38 (capsid protein, VSR) wild type (Turnip crinkle virus (pTCV cDNA), UniProt P06663 1-351) (assay: EMSA).
T1 sequence: B1 chain

| Molecule | binding result |
| --- | --- |
| UAGUUCAUCCAUGCCAUGUGU (ssRNA, 5'-phosphate) [ss gf698_21] | no binding |
| UAGUUCAUCCAUGCCAUGUGUAAU (ssRNA, 5'-phosphate) [ss gf698_24] | no binding |

Biological target: T1, TCV P38 (capsid protein, VSR) wild type
Assay: EMSA
Remark: another data set of the same source

| Molecule | Kd |
| --- | --- |
| B2 | 0.56 ± 0.09 nM |
| B3 | 0.53 ± 0.07 nM |
| B4 | 0.44 ± 0.09 nM |
| B5 | 0.3 ± 0.03 nM |
| B6 | 0.55 ± 0.05 nM |
| B7 | 0.87 ± 0.13 nM |
| B8 | 0.36 ± 0.05 nM |
| B9 | 1.27 ± 0.1 nM |

The molecules below were run against T1, TCV P38 (capsid protein, VSR) wild type (assay: competition).

| Molecule | Ki |
| --- | --- |
| B3 | 0.18 ± 0.05 nM |
| B4 | 0.4 ± 0.1 nM |
| B10 | 0.14 ± 0.03 nM |

Biological target: T1, TCV P38 (capsid protein, VSR) wild type
Assay: competition
Remark: another data set of the same source

| Molecule | Ki |
| --- | --- |
| B3 | 0.35 ± 0.1 nM |
| B4 | 0.33 ± 0.08 nM |
| B10 | 0.06 ± 0.01 nM |
| B5 | 0.33 ± 0.17 nM |
| B6 | 0.7 ± 0.2 nM |

Biological target: T1, TCV P38 (capsid protein, VSR) wild type
Assay: EMSA
Remark: another data set of the same source

| Molecule | Kd |
| --- | --- |
| B10 | 0.77 ± 0.05 nM |

Biological target: T1, TCV P38 (capsid protein, VSR) wild type
Assay: competition
Remark: another data set of the same source

| Molecule | Ki |
| --- | --- |
| B2 | 0.7 ± 0.07 nM |
| B3 | 0.57 ± 0.06 nM |
| B4 | 0.33 ± 0.03 nM |
| B10 | 0.07 ± 0.03 nM |
| B5 | 0.5 ± 0.15 nM |
| B6 | 0.95 ± 0.3 nM |

Biological target: the molecule itself
Assay: crystal structure

| Molecule | stoichiometry N |
| --- | --- |
| B1 | 60 |

The molecules below were run against TCV P38_W274A (Turnip crinkle virus) (UniProt P06663) (assay: native MS).

| Molecule | stoichiometry N |
| --- | --- |
| TCV P38_W274A (from UniProt P06663 1-351) (natural protein) | 2 |
